Assay results as given in PMC10449631 (Nature Chemical Biology, 2023).
“And” between values parts separate entries of the source, which are not always exact repeats. Identical values can stand only once. No end group written: not given here.

Legend:
[1] = target: T1, PaAP_T (P. aeruginosa aminopeptidase, C-terminal truncated) (Pseudomonas aeruginosa, UniProt Q02PA2); assay: Inhibition of PaAP_T in the Leu-pNA aminopeptidase assay (KI, IC50); format: biochemical; conditions: for IC50 plot data (PaAP_T activity at given peptide concentration): (S) = 2 mM, PaAP 100 nM
T1 construct: PaAP (WT, residues 27–536); His6 (TEV cleavable) (N, cleaved yes); made in house; host or cells: E. coli SHuffle T7
T1 sequence (Q02PA2 whole entry, looked up): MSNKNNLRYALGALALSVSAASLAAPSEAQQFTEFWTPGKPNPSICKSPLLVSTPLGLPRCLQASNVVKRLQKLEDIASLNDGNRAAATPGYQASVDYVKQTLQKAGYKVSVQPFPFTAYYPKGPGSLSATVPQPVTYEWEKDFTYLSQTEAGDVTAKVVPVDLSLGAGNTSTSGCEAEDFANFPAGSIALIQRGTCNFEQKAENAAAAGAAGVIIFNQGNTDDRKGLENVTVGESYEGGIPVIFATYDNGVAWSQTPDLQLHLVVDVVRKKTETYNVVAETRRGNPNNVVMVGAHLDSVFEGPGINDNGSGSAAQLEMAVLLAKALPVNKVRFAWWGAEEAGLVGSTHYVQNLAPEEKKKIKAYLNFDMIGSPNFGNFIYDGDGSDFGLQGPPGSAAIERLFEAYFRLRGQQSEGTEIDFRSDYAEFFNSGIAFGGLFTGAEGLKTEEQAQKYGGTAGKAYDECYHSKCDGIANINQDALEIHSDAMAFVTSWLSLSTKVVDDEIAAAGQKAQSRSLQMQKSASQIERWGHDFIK
Description: Aminopeptidase activity was determined spectrophotometrically primarily using amino Leu-pNA. Other commercially available pNA substrates (isoleucine, methionine, alanine, valine, proline, arginine, lysine and phenylalanine) were also assayed. Leu-pNA was incubated with enzyme (100 nM) in assay buffer (50 mM Tris, pH 8.5, 200 mM NaCl) at 25 °C. A pNA release caused an absorbance increase at 405 nm, monitored using a BMG Labtech plate reader. […] Data were plotted in GraphPad Prism (version 9) and the Michalis Menten equation was used for fitting.
Inhibition assays were carried out with the following peptides: linear-ERWGHDFIK (PaAP C-terminal residues), cyclic-ERWGHDFIK, N-acetylated and C-amidated ERWGHDFIK. IC50 values were determined by varying peptide concentration at a fixed substrate concentration (fixed at KM, (S) = 2 mM, PaAP concentration was 100 nM). […] KI values were determined by fitting the data to equation (1) (Morrison’s equation):1 v=1−Et+I+KI−Et+I+KI^2−4EtIKI/2Et where v is the velocity, Et is the total enzyme concentration, I is the concentration of inhibitor and KI is the equilibrium dissociation constant for the inhibitor. IC50 values increased when measured at increasing S, consistent with competitive inhibition.

PaAP = target: T2, PaAP (Pseudomonas aeruginosa, UniProt Q02PA2, A513L/Q514V/S515P); assay: Peptide digestion assay (overnight and time course, LC-MS/MALDI); format: biochemical; conditions: for substrate of / degraded by PaAP (words): incubated with PaAP overnight, LC–MS or MALDI; for P0 (parent peptide, LC–MS signal): 500 μM peptide, 1 μM PaAP_T
T2 construct: PaAP (WT, residues 27–536); His6 (TEV cleavable) (N, cleaved yes); made in house; host or cells: E. coli SHuffle T7
Description: A variety of peptides of varying lengths and compositions were incubated with PaAP at room temperature. Assays were performed by incubating (overnight at room temperature) 500 μM of substrate (peptides) with 1 μM enzyme (PaAP) in reaction buffer (50 mM Tris, pH 8.5, 100 mM NaCl). The reactions were quenched by heating to 100 °C for 10 min followed by centrifugation at 17,000g in a benchtop centrifuge to remove precipitate. Supernatant was collected and samples were analyzed by LC–MS. Initial trial assays were carried out in the presence and absence (control) of enzyme to determine if the substrate was degraded (single or triplicate experiments). Time-course assays were performed on selected peptide substrates in triplicate. A 300 μl reaction (including 500 μM of substrate) was initiated by the addition of 1 μM enzyme. The reaction was incubated at room temperature. The reaction was quenched at set timepoints by the removal of 30 μl aliquots, which were immediately heated to 100 °C for 10 min. The samples were analyzed by LC–MS using a Xevo Q-ToF (Waters) as described below, searching for masses of all peptide breakdown products.
Peptide degradation time courses were fitted to exponential equations as follows:
P0 peptide consumption was fitted to a single exponential equation (equation (2)) with the format2 yt=y0−Plateaue^−kt+Plateau
Time courses for the formation and decay of peptide intermediates were fitted to double exponential equations (equation (3)) and single exponential equations, followed by a linear phase (4)3 yt=y0−Plateau1e^−k1t+y0−Plateau2e^−k2t+Plateau 4 yt=y0−Plateaue^−kt+vt+Plateau where y(t) is the product formed at time t, y0 − Plateau is the amplitude of the exponential phase, k is the observed rate constant for the exponential phase, y0 is the value of y at time 0, Plateau is the value of y after exponential phase, C is the offset and v is the slope of the linear phase.
Peptide samples incubated in the presence and absence of PaAP were initially analyzed by MALDI. The peptide sample (0.5 µl at 10 µM) was spotted along with matrix (0.5 µl 10 mg ml^−1 α-cyano-4-hydroxycinnamic acid in ACN/0.1% TFA (50/50, vol/vol)) on a stainless steel MALDI plate and left to dry. The sample plate was loaded into a Sciex 4800 MALDI mass spectrometer. The laser voltage was adjusted to give a good signal to noise strength, and 50 shots were acquired in a random pattern across the spot and spectra combined. The spectra were externally calibrated with Sciex Pepcal mix (range: 500–4,000 m/z).

T2 sequence (Q02PA2 37-516 A513L/Q514V/S515P): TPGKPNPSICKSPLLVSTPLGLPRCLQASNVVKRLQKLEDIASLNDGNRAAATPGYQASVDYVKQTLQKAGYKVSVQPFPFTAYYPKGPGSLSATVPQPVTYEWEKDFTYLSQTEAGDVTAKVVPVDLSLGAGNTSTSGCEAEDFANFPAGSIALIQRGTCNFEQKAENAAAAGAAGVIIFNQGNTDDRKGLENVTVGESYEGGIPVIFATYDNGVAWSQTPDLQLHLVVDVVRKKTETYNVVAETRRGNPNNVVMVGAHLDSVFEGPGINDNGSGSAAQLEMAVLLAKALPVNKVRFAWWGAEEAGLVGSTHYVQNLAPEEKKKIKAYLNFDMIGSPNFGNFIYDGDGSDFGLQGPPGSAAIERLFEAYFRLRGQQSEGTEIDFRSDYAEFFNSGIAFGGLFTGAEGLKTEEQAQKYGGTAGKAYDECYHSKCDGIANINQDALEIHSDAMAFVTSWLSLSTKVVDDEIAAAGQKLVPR

Row | Substance | IC50 plot data (PaAP_T activity at given peptide concentration) ([1]; log(I) 0) | IC50 plot data (PaAP_T activity at given peptide concentration) ([1]; log(I) 0.39794) | IC50 plot data (PaAP_T activity at given peptide concentration) ([1]; log(I) 0.69897) | IC50 plot data (PaAP_T activity at given peptide concentration) ([1]; log(I) 1) | IC50 plot data (PaAP_T activity at given peptide concentration) ([1]; log(I) 1.39794) | IC50 plot data (PaAP_T activity at given peptide concentration) ([1]; log(I) 1.69897) | IC50 plot data (PaAP_T activity at given peptide concentration) ([1]; log(I) 2) | IC50 plot data (PaAP_T activity at given peptide concentration) ([1]; log(I) 2.39794) | IC50 plot data (PaAP_T activity at given peptide concentration) ([1]; log(I) -0.30103) | IC50 plot data (PaAP_T activity at given peptide concentration) ([1]; log(I) -0.60206) | IC50 plot data (PaAP_T activity at given peptide concentration) ([1]; log(I) -1) | IC50 plot data (PaAP_T activity at given peptide concentration) ([1]; log(I) -1.30103) | substrate of / degraded by PaAP (words) (PaAP) | further results
1 | Ac-ERWGHDFIK: N-terminally acetylated ERWGHDFIK | 14.1847 and 14.0241 and 15.9398 | 10.4257 and 10.2008 and 11.7831 | 7.759 and 8.43 and 9.606 | 6.157 and 6.578 and 7.803 | 4.438 and 4.522 and 4.703 | 3.468 and 3.7992 and 3.497 | 2.457 and 2.349 and 2.539 | 1.727 and 1.944 and 1.78 | 21.8755 and 21.5663 and 25.7068 | 31.9277 and 31.253 and 35.5141 | 57.8715 and 59.5181 and 63.1727 | 96.8273 and 103.173 | is not a substrate | IC50 relative to unmodified linear ERWGHDFIK ([1]; Leu-pNA assay): stronger inhibitor (lower IC50)
2 | ERWGHDFIK (head-to-tail): ERWGHDFIK peptide cyclized head-to-tail (head-to-tail cyclized) | 101.617 and 102.323 and 98.6769 | 100.735 and 102.44 and 95.9718 | 96.6774 and 96.207 and 104.322 | 101.558 and 102.323 and 97.1479 | 95.7365 and 95.8542 and 103.44 | 85.1514 and 85.6807 and 79.6236 | 68.1564 and 67.5684 and 61.9818 | 37.6478 and 35.5307 and 32.0024 | 93.6783 and 96.7951 and 93.6195 | 99.853 and 100.676 and 98.5004 | 98.7357 and 97.5007 and 102.499 | 86.6216 and 85.5631 and 74.2723 |  | inhibition of PaAP_T ([1]; Leu-pNA assay): very poor inhibitors
3 | ERLGHDFIK [… peptide with W replaced by L] |  |  |  |  |  |  |  |  |  |  |  |  |  | P0 (parent peptide, LC–MS signal) (PaAP; time 0 minutes): 242839 and 266621 and 225820; P0 (parent peptide, LC–MS signal) (PaAP; time 5 minutes): 120859 and 126339 and 82871.9; P0 (parent peptide, LC–MS signal) (PaAP; time 10 minutes): 45005.2 and 53825.2 and 41072.7; P0 (parent peptide, LC–MS signal) (PaAP; time 30 minutes): 28627.8 and 28689.7 and 21100.6; P0 (parent peptide, LC–MS signal) (PaAP; time 60 minutes): 29596.5 and 28748.7 and 27907.5; P0 (parent peptide, LC–MS signal) (PaAP; time 90 minutes): 29084.8 and 28644.1 and 25592.5; P0 (parent peptide, LC–MS signal) (PaAP; time 120 minutes): 30548.5 and 27618.8 and 28168.1; P0 (parent peptide, LC–MS signal) (PaAP; time 180 minutes): 31516.5 and 29951.1 and 28383.1; P0 (parent peptide, LC–MS signal) (PaAP; time 1220 minutes): 25934 and 29596.2 and 25678.6; relative rate of degradation by PaAP (PaAP; time-course assay, LC–MS): degraded at a faster rate than ERWGHDFIK
4 | RYLGYL: casein-derived peptide (UniProt P02662 105-110, looked up, fragment) [reference compound] |  |  |  |  |  |  |  |  |  |  |  |  | capable of processing | 
